Assay [1] addresses T1, Human LIGHT stably expressed on EL4 cells (EL4-LIGHT) (human, UniProt O43557 1-240).
T1 construct: whole, on cells; also called membrane LIGHT
As to the kind of experiment: flow cytometry, against F19 and F23.

The target in assay [2] is T2, Human LIGHT-32L, on II23 cells (human, UniProt O43557 1-240).
T2 construct: also called II23-LIGHT 32L
T2 chain: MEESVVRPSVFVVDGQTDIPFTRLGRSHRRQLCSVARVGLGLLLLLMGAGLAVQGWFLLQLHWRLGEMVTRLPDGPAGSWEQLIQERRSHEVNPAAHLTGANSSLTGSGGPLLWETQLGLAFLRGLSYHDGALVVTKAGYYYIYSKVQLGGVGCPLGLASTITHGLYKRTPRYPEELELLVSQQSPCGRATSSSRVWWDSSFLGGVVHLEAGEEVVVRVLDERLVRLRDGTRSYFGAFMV
As to the kind of experiment: flow cytometry on II23-LIGHT 32L cells, 4 ug mAb in 100 uL, goat anti-human Fc gamma-PE; signal as % of the commercial anti-LIGHT-PE. The protocol: The cells were suspended at 1×10⁷ cells/ml and 100 uL aliquots were placed into wells of a 96-well plate, the cells spun down and washed in FACS buffer at 1800 rpm for 2 min. The cells were blocked with 1:100 dilution of anti-CD16/CD32 (eBioscience, San Diego, USA) in FACS buffer for 20 min at room temperature and then washed 1× in FACS buffer at 1800 rpm for 2 min. The cells were then resuspended in 100 uL FACS buffer+4 ug anti-membrane LIGHT mAbs or anti-LIGHT-PE (eBioscience, lot: E01621-1632) for 30 min in the dark at room temperature, followed by washing 1× in FACS buffer at 1800 rpm for 2 min and then resuspended in 100 uL FACS buffer plus 1:100 goat anti-human Fcγ-PE secondary antibody or no secondary antibody at 4° C. in the dark for 30 min. The cells were again washed 1× in FACS buffer at 1800 rpm for 2 min and fixed in 200 uL 2% paraformaldehyde overnight at 4° C. and read on a flow cytometer.
Background: A flow cytometer gives signals particle by particle.

The target of assay [3] is T1, Human LIGHT stably expressed on EL4 …. As to the kind of experiment: flow cytometry, EL4-LIGHT cells. The protocol: The EC50 of the 7 mAbs were calculated from binding to EL4-LIGHT cells (FIG. 1). […] Non-linear regression analysis was performed to determine the functional binding affinity measurement or EC50 for each mAb. A range of functional affinities was observed.

For assay [4], the target named is Full length LIGHT G188A on HEK293FF cells (Homo sapiens (Human), UniProt O43557 1-240). As to the kind of experiment: flow cytometry, HEK293FF, mAb at EC50. The protocol:
(§1) The day of transfection the cells were seeded in a 24-well plate at 0.6×10⁶ cells/well. Lipofectamine 2000 (ThermoFisher scientific), 3 ul, was mixed with 50 μl OptiMEM medium (GIBCO) and then added to 50 μl Opti-MEM medium containing 3 ug plasmid DNA and incubated for 20 min at RT to form DNA-Lipofectamine 2000 complexes which were then added to the HEK293FF cells and incubated at 37° C., 5% CO₂ for 24 hours. For each construct, in duplicate, 0.60×10⁶ cells/well were used in a 96 well round bottom plate. Cells were centrifuged for 3 minutes at 300×g at 4° C., the supernatant discarded and the cells washed with 150 μl FACS buffer (0.5% FBS in phosphate buffered saline). This process was repeated 3 times. […] The wells were washed 3 times as above and 50 μl/well of goat anti-human IgG FITC (1:1500 dilution in FACS buffer, SIGMA F9512-2ML) or goat anti-mouse APC (1/500 dilution in FACS buffer, BDBioscience 550826), as appropriate, was added to the wells and incubated for 30 min at 4° C. protected from the light, with shaking. The cells were then washed as above, resuspended in 100 μl of FACS buffer and binding of the antibodies to the constructs was measured using flow cytometry and a total of 10,000 cells were acquired for each sample. Controls of buffer and secondary antibody only as well as HEK293FF non transfected cells were also used.

The target in assay [5] is Full length LIGHT R195A on HEK293FF cells (Homo sapiens (Human), UniProt O43557 1-240). Description: flow cytometry, HEK293FF, mAb at EC50. The procedure:
as §1

The target of assay [6] is Full length LIGHT S193A on HEK293FF cells (Homo sapiens (Human), UniProt O43557 1-240). Description: flow cytometry, HEK293FF, mAb at EC50. The procedure: as §1
Assay [7] addresses Full length LIGHT A190S on HEK293FF cells (Homo sapiens (Human), UniProt O43557 1-240). As to the kind of experiment: flow cytometry, HEK293FF, mAb at EC50. The procedure:
as §1

In assay [8] the target is Full length LIGHT R189A on HEK293FF cells (Homo sapiens (Human), UniProt O43557 1-240). As to the kind of experiment: flow cytometry, HEK293FF, mAb at EC50. The protocol:
as §1

For assay [9], the target named is Full length LIGHT W197A on HEK293FF cells (Homo sapiens (Human), UniProt O43557 1-240). Description: flow cytometry, HEK293FF, mAb at EC50. The procedure: as §1
For assay [10], the target named is Full length LIGHT V196A on HEK293FF cells (Homo sapiens (Human), UniProt O43557 1-240). As to the kind of experiment: flow cytometry, HEK293FF, mAb at EC50. The protocol:
as §1

The target in assay [11] is Full length LIGHT S192A on HEK293FF cells (Homo sapiens (Human), UniProt O43557 1-240). As to the kind of experiment: flow cytometry, HEK293FF, mAb at EC50. The procedure:
as §1

The target of assay [12] is Full length LIGHT S194A on HEK293FF cells (Homo sapiens (Human), UniProt O43557 1-240). As to the kind of experiment: flow cytometry, HEK293FF, mAb at EC50. The procedure:
as §1

The target in assay [13] is Full length LIGHT T191A on HEK293FF cells (Homo sapiens (Human), UniProt O43557 1-240). Description: flow cytometry, HEK293FF, mAb at EC50. The protocol:
as §1

Assay [14] concerns the target Full length LIGHT W198A on HEK293FF cells (Homo sapiens (Human), UniProt O43557 1-240). Description: flow cytometry, HEK293FF, mAb at EC50. The procedure: as §1
The target in assay [15] is LIGHT without residues 81-84, stably expressed on EL4 cells (EL4-NC-LIGHT). As to the kind of experiment: cell-based or functional assay.

Numbering of substitutions follows the chain as printed.

Sequence of Full length LIGHT W197A on HEK293FF cells (O43557 whole entry W197A): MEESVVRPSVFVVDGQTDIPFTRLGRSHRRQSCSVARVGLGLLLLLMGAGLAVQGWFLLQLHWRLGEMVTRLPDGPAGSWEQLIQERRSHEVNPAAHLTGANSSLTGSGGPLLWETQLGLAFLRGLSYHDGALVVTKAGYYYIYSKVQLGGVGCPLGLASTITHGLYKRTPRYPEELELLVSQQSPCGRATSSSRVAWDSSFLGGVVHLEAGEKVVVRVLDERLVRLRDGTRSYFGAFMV
Sequence of Full length LIGHT S194A on HEK293FF cells (O43557 whole entry S194A): as the sequence (O43557 whole entry W197A) above, with S194A, A197W counted along it
Sequence of Full length LIGHT W198A on HEK293FF cells (O43557 whole entry W198A, the tested form may be a part): as the sequence (O43557 whole entry W197A) above, with A197W, W198A counted along it
Sequence of Full length LIGHT T191A on HEK293FF cells (O43557 whole entry T191A): as the sequence (O43557 whole entry W197A) above, with T191A, A197W counted along it
T1 sequence (O43557 whole entry): as the sequence (O43557 whole entry W197A) above, with A197W counted along it
Sequence of Full length LIGHT S192A on HEK293FF cells (O43557 whole entry S192A): as the sequence (O43557 whole entry W197A) above, with S192A, A197W counted along it
Sequence of Full length LIGHT A190S on HEK293FF cells (O43557 whole entry A190S): as the sequence (O43557 whole entry W197A) above, with A190S, A197W counted along it
Sequence of Full length LIGHT G188A on HEK293FF cells (O43557 whole entry G188A): as the sequence (O43557 whole entry W197A) above, with G188A, A197W counted along it
Sequence of Full length LIGHT R195A on HEK293FF cells (O43557 whole entry R195A): as the sequence (O43557 whole entry W197A) above, with R195A, A197W counted along it
Sequence of Full length LIGHT V196A on HEK293FF cells (O43557 whole entry V196A): as the sequence (O43557 whole entry W197A) above, with V196A, A197W counted along it
Sequence of Full length LIGHT R189A on HEK293FF cells (O43557 whole entry R189A): as the sequence (O43557 whole entry W197A) above, with R189A, A197W counted along it

B1: 3E09 chimeric IgG4 mAb (antibody, V domains shown)
VH: EVQLVESGGGLVKPGGSLKLSCEASGFTFSDYYMYWVRQTPEKRLEWVAAIGDGGIYTYYADTVKGRFTISRDNAKNILYLQMSSLKSNDTAMYYCARGTGDGFAYWGQGTLVTVS
VL: DIVLTQSPASLAVSLGQRATISCRASESVDSYGNSFMHWYQQKPGQPPKLLIYLASNLESGVPARFSGSGSRTDFTLTIDPVEADDAATYYCQQNNEDPYTFGGGTKLEIK
notes: Chimeric human IgG4 (S-to-P, L-to-E) with human CL, as m1; also called Parental 3E09
As for B1, the “binding ratio, mAb to LIGHT trimer” value in assay [1] was found to be 1 mAb per LIGHT trimer. Moreover, in assay [2], the binding result is “binds”. Further, a half-maximal response in [3] (EC50) required 10.4 nM. Further, the “% of WT binding” value worked out at 35% in assay [4]; 1% in assay [5]; 0% in [6]; 97% in [7]; 1% in [8]; 1% in assay [9]. Besides, the “% of WT binding” value in [10] worked out at 34%; in assay [11], 50%; in [12], 1%; in [13], 88%; in assay [14] it was 48%.

B2: 3B04_var8 (antibody, V domains shown)
VH: QVQLVQSGAEVKKPGASVKVSCKASGYTFTDYEMHWVRQAPGQGLEWMGEIDPETGDTAYAQKFQGRVTLTADKSTSTAYMELSSLRSEDTAVYYCSRETDYFFDYWGQGTLVTVSS
VL: DIQMTQSPSSLSASVGDRVTITCGASENIYGALNWYQRKQGKAPKLLIYGATNLADGVPSRFSGSGSGRDYTLTISSLQPEDFATYYCQNVLTTPWTFGQGTKLEIKR
In the case of B2, the “IC50, inhibition of IL-8 secretion, HT-29 + EL4-NC-LIGHT cells” value (“IC50, inhibition of IL-8 secretion” below) in assay [15] was determined as 0.05 nM.

B3: 3D12_var10 (antibody, V domains shown)
VH: B2 VH with G26D, Y32S, M34I, M48I, D57G, A61N
VL: B2 VL with R38Q, Q40P, F83V, T93S
Take B3: the “IC50, inhibition of IL-8 secretion” value in assay [15] was determined as 0.44 nM.

B4: 3D12_var11 (antibody, V domains shown)
VH: B2 VH with G26D, Y32S, M34I, D57G
VL: B2 VL with R38Q, Q40P, F83V, T93S
As to B4, in assay [15], the “IC50, inhibition of IL-8 secretion” value came to 0.55 nM.

B5: 3B04_var10 (antibody, V domains shown)
VH: B2 VH with M48I, A61S, L83F
VL: B2 VL with R38Q, Q40P
With B5, the “IC50, inhibition of IL-8 secretion” value in [15] was 0.04 nM.

B6: 3B04_var4 (antibody, V domains shown)
VH: B2 VH
VL: B2 VL with K45Q, P59S
For B6, the “IC50, inhibition of IL-8 secretion” value in assay [15] was found to be 0.04 nM.

B7: 3B04_var5 (antibody, V domains shown)
VH: B2 VH with M48I, A61S, Q65K, V68A, L83F
VL: B2 VL
B7: the “IC50, inhibition of IL-8 secretion” value in assay [15] was found to be 0.04 nM.

B8: 3B04_var12 (antibody, V domains shown)
VH: B2 VH
VL: B2 VL with R38Q, Q40P
For B8, in assay [15], the “IC50, inhibition of IL-8 secretion” value came to 0.07 nM.

B9: 3B04_var2 (antibody, V domains shown)
VH: B2 VH with M48I, A61S, L83F
VL: B2 VL with K45Q, P59S
For the molecule B9, the “IC50, inhibition of IL-8 secretion” value in [15] amounted to 0.06 nM.

B10: 3B04_var9 (antibody, V domains shown)
VH: B2 VH with M48I, A61S, Q65K, V68A, L83F
VL: B2 VL with R38Q, Q40P
B10: in assay [15], the “IC50, inhibition of IL-8 secretion” value amounted to 0.09 nM.

B11: 3D12_var7 (antibody, V domains shown)
VH: B2 VH with G26D, Y32S, M34I, D57G
VL: B2 VL with F83V, T93S
Regarding B11, the “IC50, inhibition of IL-8 secretion” value in assay [15] was determined as 0.54 nM.

B12: 3D12_var2 (antibody, V domains shown)
VH: B2 VH with G26D, Y32S, M34I, M48I, D57G, A61N
VL: B2 VL with K45Q, P59S, F83V, T93S
For the molecule B12, in assay [15], the “IC50, inhibition of IL-8 secretion” value is 0.74 nM.

B13: 3D12_var6 (antibody, V domains shown)
VH: B2 VH with G26D, Y32S, M34I, M48I, D57G, A61N
VL: B2 VL with F83V, T93S
In the case of B13, the “IC50, inhibition of IL-8 secretion” value in [15] was 0.47 nM.

B14: 3D12_var1 (antibody, V domains shown)
VH: B2 VH with G26D, Y32S, M34I, M48I, D57G, A61N, Q65K, V68A
VL: B2 VL with K45Q, P59S, F83V, T93S
For the molecule B14, in assay [15], the “IC50, inhibition of IL-8 secretion” value was determined as 0.33 nM.

B15: 3D12_var9 (antibody, V domains shown)
VH: B2 VH with G26D, Y32S, M34I, M48I, D57G, A61N, Q65K, V68A
VL: B2 VL with R38Q, Q40P, F83V, T93S
As for B15, the “IC50, inhibition of IL-8 secretion” value in assay [15] was found to be 0.71 nM.

B16: 3D12_var5 (antibody, V domains shown)
VH: B2 VH with G26D, Y32S, M34I, M48I, D57G, A61N, Q65K, V68A
VL: B2 VL with F83V, T93S
As to B16, the “IC50, inhibition of IL-8 secretion” value in [15] amounted to 0.59 nM.

B17: 3B04_var1 (antibody, V domains shown)
VH: B2 VH with M48I, A61S, Q65K, V68A, L83F
VL: B2 VL with K45Q, P59S
Consider B17, for which, in assay [15], the “IC50, inhibition of IL-8 secretion” value stood at 0.05 nM.

B18: 3B04_var6 (antibody, V domains shown)
VH: B2 VH with M48I, A61S, L83F
VL: B2 VL
In the case of B18, in assay [15], the “IC50, inhibition of IL-8 secretion” value worked out at 0.08 nM.

B19: 3D12_var3 (antibody, V domains shown)
VH: B2 VH with G26D, Y32S, M34I, D57G
VL: B2 VL with K45Q, P59S, F83V, T93S
Turning to B19, the “IC50, inhibition of IL-8 secretion” value in [15] was 0.53 nM.

Values taken from US20210284747A1 (CAPELLA BIOSCIENCE, published 2021).
